According to patent US20080220446A1, “Method for Detecting and/or Removing Protein and/or Peptide Comprising a Cross-Beta Structure From an Aqueous Solution Comprising a Protein” (priority 2005, published 2008):

Biological target: tPA (Homo sapiens, UniProt P00750)
Assay: Plasminogen-activation assay (tPA activation, S-2251)
Format: biochemical
Settings: β2GPI preparations, 100 μg ml^−1
Experimental: Plasmin (Pls) activity was assayed as described^16. Peptides and proteins that were tested for their stimulatory ability were regularly used at 100 μg ml^−1. […] Chromogenic substrate S-2251 (Chromogenix, Instrumentation Laboratory SpA, Milano, Italy) was used to measure Pls activity. Conversion of zymogen factor XII (#233490, Calbiochem, EMD Biosciences, Inc., San Diego, Calif.) to proteolytically active factor XII (factor XIIa) was assayed by measurement of the conversion of chromogenic substrate Chromozym-PK (Roche Diagnostics, Almere, The Netherlands) by kallikrein. Chromozym-PK was used at a concentration of 0.3 mM. […] The conversion of Chromozym-PK was recorded kinetically at 37° C. for at least 60 minutes. […]
Formulated protein therapeutics were obtained from the local hospital pharmacy and were used as supplied by the manufacturers. […] Enhancement in fluorescence of ThT and Congo red was measured with all formulated protein therapeutics. […]
To prepare structurally altered ovalbumin (OVA) with amyloid cross-β structures, purified OVA (Sigma, A-7641, lot 071k7094) was heated to 85° C. […] Native OVA (nOVA) and heat-denatured OVA (dOVA) were tested in the ThT fluorescence assay and in the Plg-activation assay. In the fluorescence assay and in the Plg-activation assay, 25 and 100 μg ml^−1 nOVA and dOVA were tested, respectively. […]

Chain of tPA (P00750 36-562): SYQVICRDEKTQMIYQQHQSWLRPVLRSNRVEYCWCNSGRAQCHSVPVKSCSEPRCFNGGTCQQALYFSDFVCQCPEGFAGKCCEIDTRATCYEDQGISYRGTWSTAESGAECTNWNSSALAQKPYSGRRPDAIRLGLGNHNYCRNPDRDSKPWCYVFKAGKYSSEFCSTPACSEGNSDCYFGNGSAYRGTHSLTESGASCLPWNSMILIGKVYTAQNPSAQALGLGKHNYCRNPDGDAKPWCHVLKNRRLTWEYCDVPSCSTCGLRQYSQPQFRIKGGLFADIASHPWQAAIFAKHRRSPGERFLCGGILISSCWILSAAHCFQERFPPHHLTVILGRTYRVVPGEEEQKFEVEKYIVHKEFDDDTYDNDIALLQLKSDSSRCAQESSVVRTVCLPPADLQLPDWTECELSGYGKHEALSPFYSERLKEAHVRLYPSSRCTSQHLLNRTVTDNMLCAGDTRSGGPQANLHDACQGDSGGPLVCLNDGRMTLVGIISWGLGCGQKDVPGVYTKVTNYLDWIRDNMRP

B1: recombinant β2GPI: recombinant human β2-glycoprotein I made using insect cells (protein)
chain: GRTCPKPDDLPFSTVVPLKTFYEPGEEITYSCKPGYVSRGGMRKFICPLTGLWPINTLKCTPRVCPFAGILENGAVRYTTFEYPNTISFSCNTGFYLNGADSAKCTEEGKWSPELPVCAPIICPPPSIPTFATLRVYKPSAGNNSLYRDTAVFECLPQHAMFGNDTITCTTHGNWTKLPECREVKCPFPSRPDNGFVNYPAKPTLYYKDKATFGCHDGYSLDGPEEIECTKLGNWSAMPSCKASCKVPVKKATVVYQGERVKIQEKFKNGMLHGDKVSFFCKNKEKKCSYTEDAQCIDGTIEVPKCFKEHSSLAFWKTDASDVKPC
  stimulation of tPA-mediated conversion of Plg to Pls: stimulate tPA-mediated conversion of Plg to Pls
